Columns and labels:
[1] = target: T1, procollagen C-proteinase enhancer-2 with N-terminal 6His-tag (human, UniProt Q9UKZ9 24-415); experiment: SPR; steady-state fit
T1 chain: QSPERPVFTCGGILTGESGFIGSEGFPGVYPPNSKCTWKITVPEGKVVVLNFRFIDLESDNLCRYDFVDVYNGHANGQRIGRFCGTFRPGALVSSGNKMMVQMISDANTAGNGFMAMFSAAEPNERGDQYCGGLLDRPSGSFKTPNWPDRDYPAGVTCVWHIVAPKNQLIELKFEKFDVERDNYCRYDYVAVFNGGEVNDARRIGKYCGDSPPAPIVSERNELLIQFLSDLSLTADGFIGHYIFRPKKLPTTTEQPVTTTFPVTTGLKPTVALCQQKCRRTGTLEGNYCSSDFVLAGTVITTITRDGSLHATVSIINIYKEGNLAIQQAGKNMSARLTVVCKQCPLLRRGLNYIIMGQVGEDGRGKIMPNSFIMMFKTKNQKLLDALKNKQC

[2] = target: T1, procollagen C-proteinase enhancer-2 …; experiment: SPR; heterogeneous ligand model, kd1
[3] = target: T1, procollagen C-proteinase enhancer-2 …; experiment: SPR; heterogeneous ligand model, KD1 (Rmax1 42%)
[4] = target: T1, procollagen C-proteinase enhancer-2 …; experiment: SPR; heterogeneous ligand model, second site kd2
[5] = target: T1, procollagen C-proteinase enhancer-2 …; experiment: SPR; heterogeneous ligand model, second site KD2 (Rmax2 58%)
[6] = target: T2, bone morphogenetic protein-1 (human, UniProt P13497-2 121-730); experiment: SPR; steady-state fit
T2 chain: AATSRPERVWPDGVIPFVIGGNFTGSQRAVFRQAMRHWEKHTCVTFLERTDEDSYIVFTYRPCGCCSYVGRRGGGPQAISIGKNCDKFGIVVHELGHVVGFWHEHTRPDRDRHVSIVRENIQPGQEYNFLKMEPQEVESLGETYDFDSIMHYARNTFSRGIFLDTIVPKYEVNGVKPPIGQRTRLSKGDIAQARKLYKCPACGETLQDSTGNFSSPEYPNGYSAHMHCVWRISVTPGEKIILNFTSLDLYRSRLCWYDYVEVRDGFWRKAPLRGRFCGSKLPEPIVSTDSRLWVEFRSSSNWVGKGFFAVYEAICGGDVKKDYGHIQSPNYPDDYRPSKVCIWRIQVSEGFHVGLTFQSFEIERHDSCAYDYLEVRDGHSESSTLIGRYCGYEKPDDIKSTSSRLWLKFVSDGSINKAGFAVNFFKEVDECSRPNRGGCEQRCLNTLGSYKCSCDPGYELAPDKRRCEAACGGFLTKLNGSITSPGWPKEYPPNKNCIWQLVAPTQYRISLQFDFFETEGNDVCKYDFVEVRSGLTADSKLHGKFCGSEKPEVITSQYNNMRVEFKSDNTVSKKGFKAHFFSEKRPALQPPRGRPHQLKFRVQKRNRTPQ

[7] = target: T2, bone morphogenetic protein-1; experiment: SPR; heterogeneous ligand model, kd1
[8] = target: T2, bone morphogenetic protein-1; experiment: SPR; heterogeneous ligand model, KD1 (Rmax1 14%)
[9] = target: T2, bone morphogenetic protein-1; experiment: SPR; heterogeneous ligand model, second site kd2
[10] = target: T2, bone morphogenetic protein-1; experiment: SPR; heterogeneous ligand model, second site KD2 (Rmax2 86%)

B1: BMP-1[catCUB1CUB2] (domain or fragment)
chain: AATSRPERVWPDGVIPFVIGGNFTGSQRAVFRQAMRHWEKHTCVTFLERTDEDSYIVFTYRPCGCCSYVGRRGGGPQAISIGKNCDKFGIVVHELGHVVGFWHEHTRPDRDRHVSIVRENIQPGQEYNFLKMEPQEVESLGETYDFDSIMHYARNTFSRGIFLDTIVPKYEVNGVKPPIGQRTRLSKGDIAQARKLYKCPACGETLQDSTGNFSSPEYPNGYSAHMHCVWRISVTPGEKIILNFTSLDLYRSRLCWYDYVEVRDGFWRKAPLRGRFCGSKLPEPIVSTDSRLWVEFRSSSNWVGKGFFAVYEAICGGDVKKDYGHIQSPNYPDDYRPSKVCIWRIQVSEGFHVGLTFQSFEIERHDSCAYDYLEVRDGHSESSTLIGRYCGYEKPDDIKSTSSRLWLKFVSDGSINKAGFAVNFFK
Kd [1]: 24 nM | koff [2]: 0.0024 s⁻¹ | Kd [3]: 1.84 nM | koff [4]: 0.03 s⁻¹ | Kd [5]: 66 nM

B2: CUB2NTR region of PCPE-2 (domain or fragment)
chain: CGGLLDRPSGSFKTPNWPDRDYPAGVTCVWHIVAPKNQLIELKFEKFDVERDNYCRYDYVAVFNGGEVNDARRIGKYCGDSPPAPIVSERNELLIQFLSDLSLTADGFIGHYIFRPKKLPTTTEQPVTTTFPVTTGLKPTVALCQQKCRRTGTLEGNYCSSDFVLAGTVITTITRDGSLHATVSIINIYKEGNLAIQQAGKNMSARLTVVCKQCPLLRRGLNYIIMGQVGEDGRGKIMPNSFIMMFKTKNQKLLDALKNKQC
Kd [6]: 52 nM | koff [7]: 0.005 s⁻¹ | Kd [8]: 6.29 nM | koff [9]: 0.198 s⁻¹ | Kd [10]: 26.6 nM
